A word on the Kd: it is the constant that tells how readily two partners part at equilibrium. Lower therefore signals tighter binding.

Assay [1] concerns the target urokinase-type plasminogen activator receptor (uPAR) on HT 1080 cells (human (endogenous in HT 1080)) (UniProt Q03405). As to the kind of experiment: radioligand binding.
For assay [2], the target named is human uPAR overexpressed on MCF-7 cells (clone M5) (human) (UniProt Q03405). The assay can be described thus: radioligand binding.

On to “^125I-DIP-uPA (radioiodinated two chain urokinase-type plasminogen activator inactivated with diisopropylfluorophosphate) (ligand)”, for which the Kd in assay [1] and in assay [2] was 1.2 nM throughout.
